The target of this assay is T1, SPARC (Homo sapiens, UniProt P09486).
T1 sequence (P09486 18-303): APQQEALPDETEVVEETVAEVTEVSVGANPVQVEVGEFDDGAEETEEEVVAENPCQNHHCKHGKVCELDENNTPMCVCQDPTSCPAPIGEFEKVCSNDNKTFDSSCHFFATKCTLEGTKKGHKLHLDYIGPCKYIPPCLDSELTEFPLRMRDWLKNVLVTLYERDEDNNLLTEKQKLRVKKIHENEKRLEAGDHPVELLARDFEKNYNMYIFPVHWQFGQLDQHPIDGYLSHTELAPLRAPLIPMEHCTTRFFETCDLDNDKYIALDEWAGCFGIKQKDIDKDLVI
The assay is described as follows: scFv phage display screening and soluble scFv ELISA with SPARC as antigen. It counts as binding. The text has this: The overall strategy was to first, screen a human antibody phage display libraries by ELISA with SPARC as antigen.
At the start, HuScL-3® was screened four rounds (three rounds with acidic elution and one round with competitive elution) and 17 positive clones were selected by phage ELISA. […] After that, the binding specificity of the two unique antibodies was validated by soluble scFv ELISA.
Next, HuScL-2® was screened for three rounds (two rounds with trypsin-digestion elution and one round with competitive elution). In the end, 30 positive clones were selected by phage ELISA. According to the sequencing results, 29 clones shared one antibody sequence and the remaining one clone encoded another unique antibody. After that, the binding specificity of these two antibodies was validated by soluble scFv ELISA as well.
(ELISA stands for enzyme-linked immunosorbent assay.)

B1: ScFv 2-1: unique ScFv against SPARC from HuScL-2 library, among SEQ ID NOs: 113-116 (protein)
scFv: EVQLLESGGGLVQPGGSLRLSCAASGFTFSSYAMSWVRQAPGKGLEWVSMITPLGSTTAYADSVKGRFTISRDNSKNTLYLQMNSLRAEDTAVYYCAKRAGVFDYWGQGTLVTVSSGGGGSGGGGSGGGGSTDIQMTQSPSSLSASVGDRVTITCRASQSISSYLNWYQQKPGKAPKLLIYRASTLQSGVPSRFSGSGSGTDFTLTISSLQPEDFATYYCQQNDSFPTTFGQGTKVEIKR
B1: the “SPARC binding of scFv” value was “SPARC binding activity”.

B2: ScFv 3-2: unique ScFv against SPARC from HuScL-3 library, among SEQ ID NOs: 113-116 (protein)
scFv: EIVMTQSPGTLSLSPGDRATLSCRASQSVSGYLAWYQQKPGQAPRLLIYDASNRATGIPARFSGSGSGTDFTLTISSLQAEDVAVYYCQQYYSTLPTFGQGTKLEIKRSGGSTITSYNVYYTKLSSSGTQVQLVQSGGGVVQPGRPLKLSCAASGFTFSSYAMHWVRQAPGKGLEWVAVISYDGSNKYYADSVKGRFTISRDNSKNTLYLQMNSLRAEDTAVYYCARDLSWNDAFDIWGQGTMVTVSSAS
On to B2, for which the “SPARC binding of scFv” value is “SPARC binding activity”.

B3: ScFv 2-2: unique ScFv against SPARC from HuScL-2 library, among SEQ ID NOs: 113-116 (protein)
scFv: EVQLLESGGGLVQPGGSLRLSCAASGFTFSSYAMSWVRQAPGKGLEWVSHIQGQGRATYYADSVKGRFTISRDNSKNTLYLQMNSLRAEDTAVYYCAKTHGKFDYWGQGTLVTVSSGGGGSGGGGSGGGGSTDIQMTQSPSSLSASVGDRVTITCRASQSISSYLNWYQQKPGKAPKLLIYRASRLQSGVPSRFSGSGSGTDFTLTISSLQPEDFATYYCQQPSGVPTTFGQGTKVEIK
As for B3, the “SPARC binding of scFv” value was “SPARC binding activity”.

These data come from patent US8821836B2, “SPARC binding peptides and uses thereof” (Abraxis BioScience, LLC, priority 2008, dated 2014).
